{"source": "patent US20170192000A1", "about": "(Hoffmann-La Roche, published 2017)", "biological_target": "T1, Human li p10 (human)", "T1 construct": "also called Ii p10; li p10 peptide", "T1 chain": "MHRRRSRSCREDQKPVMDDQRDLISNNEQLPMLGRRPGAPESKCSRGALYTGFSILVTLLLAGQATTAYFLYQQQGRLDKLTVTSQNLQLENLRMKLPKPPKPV", "assay": "flow cytometry on fixed and permeabilised human PBMC treated with Cathepsin S inhibitor 1", "method": "FIG. 1: Detection of Ii p10 expression on B cells and T cells using a neoepitope antibody. PBMCs isolated from blood donation of a healthy donor (R213) were incubated for 20 h with increasing concentrations of Cathepsin S inhibitor 1 or vehicle. Ii p10 detection on B cells (CD20+) and T cells (CD3+) was determined by flow cytometry using a different neoepitope antibody 7B8 (black).", "data": [{"binder": "anti li p10 antibody 7B8 (antibody, V domains shown, Used unlabeled at 10 ug/mL and detected with PE-conjugated goat anti-rabbit IgG; also called anti-p10 antibody) VH: QSLEESGGRLVTPGTPLTLTCTVSGIDLSTYAMTWVRQAPGKGLEWIGIIYNNGVVVYASWAKGRFTISKTSTTVDLKMTSPTTEDTATYFCCRGYYDGSVNVWGPGTLVTVSL VL: QVLTQTASSVSAVVGGTVTISCQSSQSVYNDNVLSWFQQKPGQPPKLLIYLASTLASGVPSRFSGSGSGTQFTLTISDLECDDAAAYYCLGGYTGDMYAFGGGTEVVV", "values": [{"measurement": "binding result", "result": "binds"}]}]}
